From patent publication US20220169728A1 (AB THERAPEUTICS, published 2022)

B1: CD20/CD3 BsMab with common VL (SEQ ID NO: 3) N93A (bispecific antibody, V domains shown)
VH 1: QVQLQQPGAELVKPGASVKMSCKASGYTFTSYNMHWVKQTPGRGLEWIGAIYPGNGDTSYNQKFKGKATLTADKSSSTAYMQLSSLRSEDSAVYYCARSTYYGGDWYFNVWGAGTTVTVSA
VH 2: EVQLQESGAELARPGASVKMSCKASGYTFTSYTMHWVKQRPGEGLEWIGYINPSSGYTKYNQKFKDKATLTADKSSSTAYMELSSLTSEDSAVYYCARWQDYDVYFDYWGEGTTLTVSS
VL: QIVLSQSPAILSASPGEKVTMTCRASSSVSYIHWFQQKPGSSPKPWIYATSNLASGVPVRFSGSGSGTSYSLTISRVEAEDAATYYCQQWTSAPPTFGGGTKLEIKR
B2: CD20/CD3 BsMab with common VL (SEQ ID NO: 3) N93S (bispecific antibody, V domains shown)
VH 1: QVQLQQPGAELVKPGASVKMSCKASGYTFTSYNMHWVKQTPGRGLEWIGAIYPGNGDTSYNQKFKGKATLTADKSSSTAYMQLSSLRSEDSAVYYCARSTYYGGDWYFNVWGAGTTVTVSA
VH 2: EVQLQESGAELARPGASVKMSCKASGYTFTSYTMHWVKQRPGEGLEWIGYINPSSGYTKYNQKFKDKATLTADKSSSTAYMELSSLTSEDSAVYYCARWQDYDVYFDYWGEGTTLTVSS
VL: QIVLSQSPAILSASPGEKVTMTCRASSSVSYIHWFQQKPGSSPKPWIYATSNLASGVPVRFSGSGSGTSYSLTISRVEAEDAATYYCQQWTSSPPTFGGGTKLEIKR
B3: CD20/CD3 BsMab with common VL (SEQ ID NO: 3) P95A (bispecific antibody, V domains shown)
VH 1: QVQLQQPGAELVKPGASVKMSCKASGYTFTSYNMHWVKQTPGRGLEWIGAIYPGNGDTSYNQKFKGKATLTADKSSSTAYMQLSSLRSEDSAVYYCARSTYYGGDWYFNVWGAGTTVTVSA
VH 2: EVQLQESGAELARPGASVKMSCKASGYTFTSYTMHWVKQRPGEGLEWIGYINPSSGYTKYNQKFKDKATLTADKSSSTAYMELSSLTSEDSAVYYCARWQDYDVYFDYWGEGTTLTVSS
VL: QIVLSQSPAILSASPGEKVTMTCRASSSVSYIHWFQQKPGSSPKPWIYATSNLASGVPVRFSGSGSGTSYSLTISRVEAEDAATYYCQQWTSNPATFGGGTKLEIKR
B4: CD20/CD3 BsMab with common VL (SEQ ID NO: 3) P95V (bispecific antibody, V domains shown)
VH 1: QVQLQQPGAELVKPGASVKMSCKASGYTFTSYNMHWVKQTPGRGLEWIGAIYPGNGDTSYNQKFKGKATLTADKSSSTAYMQLSSLRSEDSAVYYCARSTYYGGDWYFNVWGAGTTVTVSA
VH 2: EVQLQESGAELARPGASVKMSCKASGYTFTSYTMHWVKQRPGEGLEWIGYINPSSGYTKYNQKFKDKATLTADKSSSTAYMELSSLTSEDSAVYYCARWQDYDVYFDYWGEGTTLTVSS
VL: QIVLSQSPAILSASPGEKVTMTCRASSSVSYIHWFQQKPGSSPKPWIYATSNLASGVPVRFSGSGSGTSYSLTISRVEAEDAATYYCQQWTSNPVTFGGGTKLEIKR
B5: CD20/CD3 BsMab with common VL (SEQ ID NO: 3) N93Y (bispecific antibody, V domains shown)
VH 1: QVQLQQPGAELVKPGASVKMSCKASGYTFTSYNMHWVKQTPGRGLEWIGAIYPGNGDTSYNQKFKGKATLTADKSSSTAYMQLSSLRSEDSAVYYCARSTYYGGDWYFNVWGAGTTVTVSA
VH 2: EVQLQESGAELARPGASVKMSCKASGYTFTSYTMHWVKQRPGEGLEWIGYINPSSGYTKYNQKFKDKATLTADKSSSTAYMELSSLTSEDSAVYYCARWQDYDVYFDYWGEGTTLTVSS
VL: QIVLSQSPAILSASPGEKVTMTCRASSSVSYIHWFQQKPGSSPKPWIYATSNLASGVPVRFSGSGSGTSYSLTISRVEAEDAATYYCQQWTSYPPTFGGGTKLEIKR
B6: CD20/CD3 BsMab with common VL (SEQ ID NO: 3) H33A (bispecific antibody, V domains shown)
VH 1: QVQLQQPGAELVKPGASVKMSCKASGYTFTSYNMHWVKQTPGRGLEWIGAIYPGNGDTSYNQKFKGKATLTADKSSSTAYMQLSSLRSEDSAVYYCARSTYYGGDWYFNVWGAGTTVTVSA
VH 2: EVQLQESGAELARPGASVKMSCKASGYTFTSYTMHWVKQRPGEGLEWIGYINPSSGYTKYNQKFKDKATLTADKSSSTAYMELSSLTSEDSAVYYCARWQDYDVYFDYWGEGTTLTVSS
VL: QIVLSQSPAILSASPGEKVTMTCRASSSVSYIAWFQQKPGSSPKPWIYATSNLASGVPVRFSGSGSGTSYSLTISRVEAEDAATYYCQQWTSNPPTFGGGTKLEIKR
B7: CD20/CD3 BsMab with common VL (SEQ ID NO: 3) H33W (bispecific antibody, V domains shown)
VH 1: QVQLQQPGAELVKPGASVKMSCKASGYTFTSYNMHWVKQTPGRGLEWIGAIYPGNGDTSYNQKFKGKATLTADKSSSTAYMQLSSLRSEDSAVYYCARSTYYGGDWYFNVWGAGTTVTVSA
VH 2: EVQLQESGAELARPGASVKMSCKASGYTFTSYTMHWVKQRPGEGLEWIGYINPSSGYTKYNQKFKDKATLTADKSSSTAYMELSSLTSEDSAVYYCARWQDYDVYFDYWGEGTTLTVSS
VL: QIVLSQSPAILSASPGEKVTMTCRASSSVSYIWWFQQKPGSSPKPWIYATSNLASGVPVRFSGSGSGTSYSLTISRVEAEDAATYYCQQWTSNPPTFGGGTKLEIKR
B8: CD20/CD3 BsMab with common VL (SEQ ID NO: 3) N93F (bispecific antibody, V domains shown)
VH 1: QVQLQQPGAELVKPGASVKMSCKASGYTFTSYNMHWVKQTPGRGLEWIGAIYPGNGDTSYNQKFKGKATLTADKSSSTAYMQLSSLRSEDSAVYYCARSTYYGGDWYFNVWGAGTTVTVSA
VH 2: EVQLQESGAELARPGASVKMSCKASGYTFTSYTMHWVKQRPGEGLEWIGYINPSSGYTKYNQKFKDKATLTADKSSSTAYMELSSLTSEDSAVYYCARWQDYDVYFDYWGEGTTLTVSS
VL: QIVLSQSPAILSASPGEKVTMTCRASSSVSYIHWFQQKPGSSPKPWIYATSNLASGVPVRFSGSGSGTSYSLTISRVEAEDAATYYCQQWTSFPPTFGGGTKLEIKR
B9: CD20/CD3 BsMab with common VL (SEQ ID NO: 3) P95T (bispecific antibody, V domains shown)
VH 1: QVQLQQPGAELVKPGASVKMSCKASGYTFTSYNMHWVKQTPGRGLEWIGAIYPGNGDTSYNQKFKGKATLTADKSSSTAYMQLSSLRSEDSAVYYCARSTYYGGDWYFNVWGAGTTVTVSA
VH 2: EVQLQESGAELARPGASVKMSCKASGYTFTSYTMHWVKQRPGEGLEWIGYINPSSGYTKYNQKFKDKATLTADKSSSTAYMELSSLTSEDSAVYYCARWQDYDVYFDYWGEGTTLTVSS
VL: QIVLSQSPAILSASPGEKVTMTCRASSSVSYIHWFQQKPGSSPKPWIYATSNLASGVPVRFSGSGSGTSYSLTISRVEAEDAATYYCQQWTSNPTTFGGGTKLEIKR
B10: CD20/CD3 BsMab with common VL (SEQ ID NO: 3) P95Q (bispecific antibody, V domains shown)
VH 1: QVQLQQPGAELVKPGASVKMSCKASGYTFTSYNMHWVKQTPGRGLEWIGAIYPGNGDTSYNQKFKGKATLTADKSSSTAYMQLSSLRSEDSAVYYCARSTYYGGDWYFNVWGAGTTVTVSA
VH 2: EVQLQESGAELARPGASVKMSCKASGYTFTSYTMHWVKQRPGEGLEWIGYINPSSGYTKYNQKFKDKATLTADKSSSTAYMELSSLTSEDSAVYYCARWQDYDVYFDYWGEGTTLTVSS
VL: QIVLSQSPAILSASPGEKVTMTCRASSSVSYIHWFQQKPGSSPKPWIYATSNLASGVPVRFSGSGSGTSYSLTISRVEAEDAATYYCQQWTSNPQTFGGGTKLEIKR
B11: CD20/CD3 BsMab with common VL (SEQ ID NO: 3) H33L (bispecific antibody, V domains shown)
VH 1: QVQLQQPGAELVKPGASVKMSCKASGYTFTSYNMHWVKQTPGRGLEWIGAIYPGNGDTSYNQKFKGKATLTADKSSSTAYMQLSSLRSEDSAVYYCARSTYYGGDWYFNVWGAGTTVTVSA
VH 2: EVQLQESGAELARPGASVKMSCKASGYTFTSYTMHWVKQRPGEGLEWIGYINPSSGYTKYNQKFKDKATLTADKSSSTAYMELSSLTSEDSAVYYCARWQDYDVYFDYWGEGTTLTVSS
VL: QIVLSQSPAILSASPGEKVTMTCRASSSVSYILWFQQKPGSSPKPWIYATSNLASGVPVRFSGSGSGTSYSLTISRVEAEDAATYYCQQWTSNPPTFGGGTKLEIKR
B12: CD20/CD3 BsMab with common VL (SEQ ID NO: 3) H33R (bispecific antibody, V domains shown)
VH 1: QVQLQQPGAELVKPGASVKMSCKASGYTFTSYNMHWVKQTPGRGLEWIGAIYPGNGDTSYNQKFKGKATLTADKSSSTAYMQLSSLRSEDSAVYYCARSTYYGGDWYFNVWGAGTTVTVSA
VH 2: EVQLQESGAELARPGASVKMSCKASGYTFTSYTMHWVKQRPGEGLEWIGYINPSSGYTKYNQKFKDKATLTADKSSSTAYMELSSLTSEDSAVYYCARWQDYDVYFDYWGEGTTLTVSS
VL: QIVLSQSPAILSASPGEKVTMTCRASSSVSYIRWFQQKPGSSPKPWIYATSNLASGVPVRFSGSGSGTSYSLTISRVEAEDAATYYCQQWTSNPPTFGGGTKLEIKR
B13: CD20/CD3 BsMab with common VL (SEQ ID NO: 3) H33P (bispecific antibody, V domains shown)
VH 1: QVQLQQPGAELVKPGASVKMSCKASGYTFTSYNMHWVKQTPGRGLEWIGAIYPGNGDTSYNQKFKGKATLTADKSSSTAYMQLSSLRSEDSAVYYCARSTYYGGDWYFNVWGAGTTVTVSA
VH 2: EVQLQESGAELARPGASVKMSCKASGYTFTSYTMHWVKQRPGEGLEWIGYINPSSGYTKYNQKFKDKATLTADKSSSTAYMELSSLTSEDSAVYYCARWQDYDVYFDYWGEGTTLTVSS
VL: QIVLSQSPAILSASPGEKVTMTCRASSSVSYIPWFQQKPGSSPKPWIYATSNLASGVPVRFSGSGSGTSYSLTISRVEAEDAATYYCQQWTSNPPTFGGGTKLEIKR

Biological target: CD3 (Homo sapiens (Human), UniProt P07766 23-207; P04234 22-171; P09693 23-182)
Sequence (P07766 23-207 limits assumed, chain 1 of 3): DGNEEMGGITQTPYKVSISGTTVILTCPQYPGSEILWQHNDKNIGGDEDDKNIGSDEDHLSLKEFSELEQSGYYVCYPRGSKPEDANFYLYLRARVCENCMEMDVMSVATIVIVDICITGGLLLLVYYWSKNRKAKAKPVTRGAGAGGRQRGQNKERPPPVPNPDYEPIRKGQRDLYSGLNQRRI
Sequence (P04234 22-171 limits assumed, chain 2 of 3): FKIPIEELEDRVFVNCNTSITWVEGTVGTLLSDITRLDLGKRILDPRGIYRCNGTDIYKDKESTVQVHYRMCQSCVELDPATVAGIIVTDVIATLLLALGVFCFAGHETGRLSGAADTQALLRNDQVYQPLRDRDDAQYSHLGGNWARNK
Sequence (P09693 23-182 limits assumed, chain 3 of 3): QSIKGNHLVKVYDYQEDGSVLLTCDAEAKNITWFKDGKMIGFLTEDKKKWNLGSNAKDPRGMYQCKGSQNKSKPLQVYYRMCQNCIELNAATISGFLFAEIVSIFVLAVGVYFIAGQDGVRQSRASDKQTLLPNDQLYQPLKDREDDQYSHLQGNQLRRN
Assay: cell-based or functional assay

In order of falling “Function % 0.025 ug/ml (T cell activation, CD69 on Jurkat cells with Raji cells, against the unmutated baseline)” value:
1. B4  96%
2. B6  65%
3. B13  34%
4. B3  19%
5. B11  16%
6. B2  15%
7. B7  14%
8. B9  13%
9. B1  12%
10. B5  12%
11. B8  11%
12. B10  11%
13. B12  9%

In order of falling “Function % 2 ug/ml (T cell activation, CD69 on Jurkat cells with Raji cells, against the unmutated baseline)” value:
1. B6  104%
2. B4  97%
3. B13  94%
4. B11  93%
5. B3  92%
6. B2  90%
7. B7  87%
8. B1  80%
9. B8  70%
10. B12  54%
11. B9  52%
12. B5  22%
13. B10  17%
